Assay results reported in article doi:10.1101/2025.04.26.650775, “Evolution of a fuzzy ribonucleoprotein complex in viral assembly” (bioRxiv, 2025).

Columns and labels:
[1] = target: SARS-CoV-2 N-protein Nο (Omicron set N:P13L/Δ31–33/R203K/G204R), full-length (SARS-CoV-2) (UniProt P0DTC9); assay: mass photometry
[2] = target: SARS-CoV-2 N-protein N:G215C (reduced), full-length (SARS-CoV-2) (UniProt P0DTC9); assay: mass photometry
[3] = target: SARS-CoV-2 N-protein N:G215C (reduced), full-length (SARS-CoV-2) (UniProt P0DTC9); assay: AUC
[4] = target: SARS-CoV-2 N-protein N:G215C* (oxidized), full-length (SARS-CoV-2) (UniProt P0DTC9); assay: mass photometry
[5] = target: SARS-CoV-2 N-protein N:R203K/G204R, full-length (SARS-CoV-2) (UniProt P0DTC9); assay: mass photometry
[6] = target: the molecule itself; assay: dynamic light scattering

“SARS-CoV-2 N-protein Nο (Omicron set N:P13L/Δ31–33/R203K/G204R), full-length (from UniProt P0DTC9 1-419) (natural protein)” was tested. Which best-fit effective RNP life-time (with SL7 RNA) [1] did it give?
The best-fit effective RNP life-time (with SL7 RNA) was 58.5 s.

What does the source list for “SARS-CoV-2 N-protein N:G215C (reduced), full-length (from UniProt P0DTC9 1-419) (natural protein)”?
best-fit effective RNP life-time (with SL7 RNA) [2]: 231 s; Kd [3]: 1000 nM

For “SARS-CoV-2 N-protein N:G215C* (oxidized), full-length (from UniProt P0DTC9 1-419) (natural protein)”, which best-fit effective RNP life-time (with SL7 RNA) [4] is on record?
Its best-fit effective RNP life-time (with SL7 RNA) is 41.8 s.

Which best-fit effective RNP life-time (with SL7 RNA) [5] does the source give for “SARS-CoV-2 N-protein N:R203K/G204R, full-length (from UniProt P0DTC9 1-419) (natural protein)” here?
Its best-fit effective RNP life-time (with SL7 RNA) is 54.6 s.

B1: LRS peptide N_(210–246):G214C (peptide)
peptide: MAGNCGDAALALLLLDRLNQLESKMSGKGQQQQGQTV
Does B1 bind [6]?
Result: binds
